The text below walks through data of patent publication US20250215104A1 (WALDEN BIOSCIENCES, published 2025).

Assay [1] has as its target T1, cynomolgus soluble urokinase plasminogen activator receptor (cynomolgus suPAR) (cynomolgus, UniProt Q9GK78 23-303, limits assumed).
T1 construct: also called cynomolgus uPAR; cynoPLAUR-His
Briefly: BLI (Octet) off-rate screen of scFv.

Assay [2] deals with T2, human soluble urokinase plasminogen activator receptor (hsuPAR) (human, UniProt Q03405 23-303, limits assumed).
T2 construct: also called human suPAR; rhuPAR-His
T2 sequence (Q03405 23-303 limits assumed): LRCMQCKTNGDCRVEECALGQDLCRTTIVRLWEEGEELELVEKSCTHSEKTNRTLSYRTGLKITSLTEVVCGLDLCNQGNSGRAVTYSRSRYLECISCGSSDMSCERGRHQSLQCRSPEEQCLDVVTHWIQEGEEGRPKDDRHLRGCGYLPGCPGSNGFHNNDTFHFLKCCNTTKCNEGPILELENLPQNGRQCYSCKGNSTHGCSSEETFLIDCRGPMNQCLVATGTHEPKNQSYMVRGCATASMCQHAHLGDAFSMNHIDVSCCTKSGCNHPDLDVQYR
Briefly: BLI (Octet) off-rate screen of scFv. (In general: BLI is a label-free optical method that tracks binding on a fibre tip over time.)

For orientation: koff means a measure of how fast the partners let go of each other.

T1 sequence (Q9GK78 23-303 limits assumed): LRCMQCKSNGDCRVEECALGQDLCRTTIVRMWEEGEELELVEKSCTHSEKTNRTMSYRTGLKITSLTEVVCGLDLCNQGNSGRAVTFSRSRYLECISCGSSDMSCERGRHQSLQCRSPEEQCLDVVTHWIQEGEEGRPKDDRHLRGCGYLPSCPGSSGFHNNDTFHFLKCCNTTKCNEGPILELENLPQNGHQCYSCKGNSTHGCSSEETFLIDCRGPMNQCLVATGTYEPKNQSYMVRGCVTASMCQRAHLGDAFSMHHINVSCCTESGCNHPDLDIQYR

B1: suPAR_DB01_F06 (scFv, V domains shown)
VH: QVQLVQSGAEVKKPGASVKVSCKASGYTFTSYYMHWVRQAPGQGLEWMGWIDHENGNTIYAQKFQGRVTMTRDTSTSTVYMELSSLRSEDTAVYYCARGYDVDWFVYWGQGTLVTVSS
VL: DIQMTQSPSSLSASVGDRVTITCSARQSISYMYWYQQKPGKAPKLLIYRTSNLQSGVPSRFSGSGSGTDFTLTISSLQPEDFATYYCQQYHSYPPTFGGGTKVEIK
notes: Screened as scFv
Regarding B1, the koff in assay [1] amounted to 4.98e-05 s⁻¹; in assay [2], 0.00267 s⁻¹.

B2: suPAR_DB01_G10 (scFv, V domains shown)
VH: QVQLVQSGAEVKKPGASVKVSCKASGYTFTNYYMHWVRQAPGQGLEWMGWIDHEGGNTSYAQKFQGRVTMTRDTSTSTVYMELSSLRSEDTAVYYCARGYDVDWFVYWGQGTLVTVSS
VL: DIQMTQSPSSLSASVGDRVTITCSARSSVSYMYWYQQKPGKAPKLLIYRTSNLASGVPSRFSGSGSGTDFTLTISSLQPEDFATYYCQQYHSYPPTFGGGTKVEIK
notes: Screened as scFv
Regarding B2, the koff in assay [1] was 0.000197 s⁻¹; in assay [2], 0.00343 s⁻¹.

B3: suPAR_DB01_G07 (scFv, V domains shown)
VH: QVQLVQSGAEVKKPGASVKVSCKASGNTFTSYYMHWVRQAPGQGLEWMGWIDPENGNTIYDQKFQGRVTMTRDTSTSTVYMELSSLRSEDTAVYYCARGYDVDWFVYWGQGTLVTVSS
VL: DIQMTQSPSSLSASVGDRVTITCSARSSVSYMYWYQQKPGKAPKLLIYRTSNLASGVPSRFSGSGSGTDFTLTISSLQPEDFATYYCQQYHSYPPTFGGGTKVEIK
notes: Screened as scFv
Regarding B3, the koff in assay [1] came out at 1.73e-05 s⁻¹; in assay [2] it was 0.00407 s⁻¹.

B4: suPAR_DB01_G09 (scFv, V domains shown)
VH: QVQLVQSGAEVKKPGASVKVSCKASGHTLNSYYMHWVRQAPGQGLEWMGWIDPENGNTIYAQKFQGRVTMTRDTSTSTVYMELSSLRSEDTAVYYCARGYDVDWFVYWGQGTLVTVSS
VL: DIQMTQSPSSLSASVGDRVTITCSARQSVSYMYWYQQKPGKAPKLLIYRTSNLASGVPSRFSGSGSGTDFTLTISSLQPEDFATYYCQQYHSYPPTFGGGTKVEIK
notes: Screened as scFv
Turning to B4, the results for the koff in assay [1] and in assay [2] were 0.000347 s⁻¹ and 0.00433 s⁻¹, respectively.

B5: suPAR_DB01_F12 (scFv, V domains shown)
VH: QVQLVQSGAEVKKPGASVKVSCKASGFNIKDYYIHWVRQAPGQGLEWMGWIDPENGSTIYDQKFQGRVTMTRDTSTSTVYMELSSLRSEDTAVYYCARGYDVDWFVYWGQGTLVTVSS
VL: DIQMTQSPSSLSASVGDRVTITCRARQSVSYMYWYQQKPGKAPKLLIYRTSNLASGVPSRFSGSGSGTDFTLTISSLQPEDFATYYCQQYHSYPPTFGGGTKVEIK
notes: Screened as scFv
As to B5, the results for the koff in assay [1] and in assay [2] were 0.000192 s⁻¹ and 0.00282 s⁻¹, respectively.

B6: suPAR_DB01_G04 (scFv, V domains shown)
VH: QVQLVQSGAEVKKPGASVKVSCKASGYTLSGYYMHWVRQAPGQGLEWMGWIDPNSGGTKYAQKFQGRVTMTRDTSTSTVYMELSSLRSEDTAVYYCARGYDVDWFVYWGQGTLVTVSS
VL: DIQMTQSPSSLSASVGDRVTITCRARQSVSYMYWYQQKPGKAPKLLIYRTSNLASGVPSRFSGSGSGTDFTLTISSLQPEDFATYYCQQYHSYPPTFGGGTKVEIK
notes: Screened as scFv
For the molecule B6, the koff in assay [1] turned out to be 7.99e-05 s⁻¹; in assay [2], 0.00364 s⁻¹.

B7: suPAR_DB01_G08 (scFv, V domains shown)
VH: QVQLVQSGAEVKKPGASVKVSCKASGYSFTNYYMHWVRQAPGQGLEWMGWIDHENGNTSYAQKFQGRVTMTRDTSTSTVYMELSSLRSEDTAVYYCARGYDVDWFVYWGQGTLVTVSS
VL: DIQMTQSPSSLSASVGDRVTITCSARQSVSYMYWYQQKPGKAPKLLIYRTSSLASGVPSRFSGSGSGTDFTLTISSLQPEDFATYYCQQYHSYPPTFGGGTKVEIK
notes: Screened as scFv
Regarding B7, the koff came out at 0.000104 s⁻¹ in assay [1] and 0.00309 s⁻¹ in assay [2].

B8: suPAR_DB01_F08 (scFv, V domains shown)
VH: QVQLVQSGAEVKKPGASVKVSCKASGYTFTGYYMHWVRQAPGQGLEWMGWIDHENGSTIYAQKFQGRVTMTRDTSTSTVYMELSSLRSEDTAVYYCARGYDVDWFVYWGQGTLVTVSS
VL: DIQMTQSPSSLSASVGDRVTITCRARQSVSYMYWYQQKPGKAPKLLIYRTSNLASGVPSRFSGSGSGTDFTLTISSLQPEDFATYYCQQYHSYPPTFGGGTKVEIK
notes: Screened as scFv
For B8, the values for the koff in assay [1] and in assay [2] were 0.000207 s⁻¹ and 0.000505 s⁻¹, respectively.

B9: suPAR_DB01_H01 (scFv, V domains shown)
VH: QVQLVQSGAEVKKPGASVKVSCKASGDTFTSYYMHWVRQAPGQGLEWMGWIDPENGNTIYDQKFQGRVTMTRDTSTSTVYMELSSLRSEDTAVYYCARGYDVDWFVYWGQGTLVTVSS
VL: DIQMTQSPSSLSASVGDRVTITCSARSSVSYMYWYQQKPGKAPKLLIYRTSNLASGVPSRFSGSGSGTDFTLTISSLQPEDFATYYCQQYHSYPPTFGGGTKVEIK
notes: Screened as scFv
On to B9, for which the koff in assay [1] was determined as 0.000122 s⁻¹; in assay [2], 0.00454 s⁻¹.

B10: suPAR_DB01_F10 (scFv, V domains shown)
VH: QVQLVQSGAEVKKPGASVKVSCKASGYTFTSYYMHWVRQAPGQGLEWMGWIDHENGSTSYDQKFQGRVTMTRDTSTSTVYMELSSLRSEDTAVYYCARGYDVDWFVYWGQGTLVTVSS
VL: DIQMTQSPSSLSASVGDRVTITCSARSSVSYMYWYQQKPGKAPKLLIYRTSNLASGVPSRFSGSGSGTDFTLTISSLQPEDFATYYCQQYHSYPPTFGGGTKVEIK
notes: Screened as scFv
For B10, the figures for the koff in assay [1] and in assay [2] were 3.88e-05 s⁻¹ and 0.00183 s⁻¹, respectively.

B11: suPAR_DB01_G01 (scFv, V domains shown)
VH: QVQLVQSGAEVKKPGASVKVSCKASGDTFSSYYMHWVRQAPGQGLEWMGWIDHENGNTIYDQKFQGRVTMTRDTSTSTVYMELSSLRSEDTAVYYCARGYDVDWFVYWGQGTLVTVSS
VL: DIQMTQSPSSLSASVGDRVTITCSARSSVSYMYWYQQKPGKAPKLLIYRTSNLASGVPSRFSGSGSGTDFTLTISSLQPEDFATYYCQQYHSYPPTFGGGTKVEIK
notes: Screened as scFv
As for B11, the koff was 0.000152 s⁻¹ in assay [1] and 0.00429 s⁻¹ in assay [2].

B12: suPAR_DB01_F11 (scFv, V domains shown)
VH: QVQLVQSGAEVKKPGASVKVSCKASGYTFTSYYMHWVRQAPGQGLEWMGWIDHEGGNTSYAQKFQGRVTMTRDTSTSTVYMELSSLRSEDTAVYYCARGYDVDWFVYWGQGTLVTVSS
VL: DIQMTQSPSSLSASVGDRVTITCRASSSVSYMYWYQQKPGKAPKLLIYRTSNLASGVPSRFSGSGSGTDFTLTISSLQPEDFATYYCQQYHSYPPTFGGGTKVEIK
notes: Screened as scFv
For the molecule B12, the koff was found to be 9.02e-05 s⁻¹ in assay [1] and 0.00293 s⁻¹ in assay [2].

B13: suPAR_DB01_G12 (scFv, V domains shown)
VH: QVQLVQSGAEVKKPGASVKVSCKASGDTFSNYYMHWVRQAPGQGLEWMGWIDHENGNTIYDQKFQGRVTMTRDTSTSTVYMELSSLRSEDTAVYYCARGYDVDWFVYWGQGTLVTVSS
VL: DIQMTQSPSSLSASVGDRVTITCSARSSISYMYWYQQKPGKAPKLLIYRTSNLASGVPSRFSGSGSGTDFTLTISSLQPEDFATYYCQQYHSYPPTFGGGTKVEIK
notes: Screened as scFv
Consider B13, for which the koff in assay [1] was determined as 0.000247 s⁻¹; in assay [2], 0.00466 s⁻¹.

B14: suPAR_DB01_G02 (scFv, V domains shown)
VH: QVQLVQSGAEVKKPGASVKVSCKASGYSFTDYYMHWVRQAPGQGLEWMGWIDHENGNTIYAQKFQGRVTMTRDTSTSTVYMELSSLRSEDTAVYYCARGYDVDWFVYWGQGTLVTVSS
VL: DIQMTQSPSSLSASVGDRVTITCSARSSVSYMYWYQQKPGKAPKLLIYRTSNLASGVPSRFSGSGSGTDFTLTISSLQPEDFATYYCQQYHSYPPTFGGGTKVEIK
notes: Screened as scFv
Turning to B14, the koff in assay [1] was 0.000149 s⁻¹; in assay [2] it was 0.00245 s⁻¹.
